Reference: PMC10424185, “C-2 Thiophenyl Tryptophan Trimers Inhibit Cellular Entry of SARS-CoV-2 through Interaction with the Viral Spike (S) Protein” (Journal of Medicinal Chemistry, 2023)

Target: S:D614G protein (SARS-CoV-2 spike with the D614G mutation, form used for cryoEM) (SARS-CoV-2 | not stated)
Assay: cryo-EM structure

Substance: S:D614G protein (SARS-CoV-2 spike with the D614G mutation, form used for cryoEM)
- stoichiometry N: 3
